According to the supplement of paper PMC9170038:

Key:
[1] = tested on: MS2 coat protein; test: apparent KD of MS2 coat protein, switch ON state; designed switch direction (-1 OFF switch, 1 ON switch): -1; higher = weaker reporter binding; conditions: FMN input: 0 or 200 uM; Eterna round: R93 (includes R88 designs)
Outline: (§1)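 The buffer was 100 mM Tris-HCl pH 7.5 with 80 mM KCl and 4 mM MgCl2, used without or with constant ligand. In it, RNA switches transcribed on-chip from Illumina sequencing clusters were titrated with SNAP-549-labelled MS2 coat protein in twofold steps from 0.7 or 1.5 nM to 3 µM. Apparent KD for each design is the median of its normalised cluster binding-curve fits.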

[2] = tested on: MS2 coat protein; test: apparent KD of MS2 coat protein, switch OFF state (with FMN for OFF switches, without FMN for ON switches); designed switch direction (-1 OFF switch, 1 ON switch): -1; higher = weaker reporter binding; conditions: FMN input: 0 or 200 uM; Eterna round: R93 (includes R88 designs)
Outline: as §1

## AGCUAGUCAGGAUAUACGAAAAUGUCAGAAGCUGAGAAGGGACAUGAGGAUCACCCAUGUAGAAGGGACUAGCA [Diamond 37]
[1]
  apparent KD of MS2 coat protein: 0.0702 µM
[2]
  apparent KD of MS2 coat protein: 0.316 µM

## AGCUAGUCAGGAUAUACGAACAUGUAAAAAGAAGUGAAGGGACAUGAGGAUCACCCAUGUAGAAGGGACUAGAA [74%, Web mod - With 3 less C's]
[1]
  apparent KD of MS2 coat protein: 0.0555 µM
[2]
  apparent KD of MS2 coat protein: 0.109 µM

## AGCUAGUCAGGAUAUACGAACAUGUCAAAAGACGUGAAGGGACAUGAGGAUCACCCAUGUAGAAGGGACUAGCG [salish99-ex2-14]
[1]
  apparent KD of MS2 coat protein: 0.036 µM
[2]
  apparent KD of MS2 coat protein: 0.103 µM

## AGCUAGUCAGGAUAUACGAACAUGUCAUAAGACGUGAAGGGACAUGAGGAUCACCCAUGUAGAAGGGACUAGCA [74%, Web mod - With 1 more U's]
[1]
  apparent KD of MS2 coat protein: 0.0367 µM
[2]
  apparent KD of MS2 coat protein: 0.139 µM

## AGCUAGUGAGGAUAUACGAACAUGUCAACAGACUGUAAGGGACAUGAGGAUCACCCAUGUAGAAGGCACUAGCA [Diamond 56]
[1]
  apparent KD of MS2 coat protein: 0.0594 µM
[2]
  apparent KD of MS2 coat protein: 0.174 µM

## AGCUGGAGAGGAUAUACGUAGGAAAAAAAAGUCUGAUCCCUACAUGAGGAUCACCCAUGUAGAAGGCUCUGGCA [Ex2 Design 161: Sub-opt 25]
[1]
  apparent KD of MS2 coat protein: 0.0635 µM
[2]
  apparent KD of MS2 coat protein: 0.0636 µM

## AGGAAACAUGAGGAUCACCCAUGUAAGGAUAUGUGAAAGAAAAGAAAAGAAAGAAGAAACAGAAGGUACAAGAA [Qa'a]
[1]
  apparent KD of MS2 coat protein: 0.0463 µM
[2]
  apparent KD of MS2 coat protein: 0.0424 µM

## AGGAAACAUGAGGAUCACCCAUGUAAGGAUAUGUGAAAGAAAAGAAAAGAAAGAAGAAGCAGAAGGUACAAGAA [Anedjib]
[1]
  apparent KD of MS2 coat protein: 0.0348 µM
[2]
  apparent KD of MS2 coat protein: 0.0472 µM

## AGGAAACAUGAGGAUCACCCAUGUCAGGAUAUAUGAAAGAAAAGAAAAGAAAGAAGAAGUAGAAGGGACAAGAA [Ka]
[1]
  apparent KD of MS2 coat protein: 0.0298 µM
[2]
  apparent KD of MS2 coat protein: 0.0299 µM

## AGGAAACAUGAGGAUCACCCAUGUGAGGAUAUGAACGAAAAUAAAUAAAAAUAAAAGUUCAGAAGGCAUAAAAA [66%, Wbt, 4]
[1]
  apparent KD of MS2 coat protein: 0.03 µM
[2]
  apparent KD of MS2 coat protein: 0.0356 µM

## AGGAAACAUGAGGAUCACCCAUGUGAGGAUAUGAACGAAAUAAAAUAAAAAUAAAAGUUCAGAAGGCAUAAAAA [Mat - Exclusion 1 - Eli mod - D7]
[1]
  apparent KD of MS2 coat protein: 0.0268 µM
[2]
  apparent KD of MS2 coat protein: 0.0244 µM

## AGGAAACAUGAGGAUCACCCAUGUUAGGAUAUGAACGAAAAUAAAUAAAAAUAAAAGUUCAGAAGGAACAAAAA [66%, Wbt, 18]
[1]
  apparent KD of MS2 coat protein: 0.027 µM
[2]
  apparent KD of MS2 coat protein: 0.0419 µM

## AGGCAGACAGGAUAUACUUGGGCAGCCAAUAUAAUAAUAUAACAUGAGGAUCACCCAUGUAGAAGGGUCAGAAA [JR_Exc002_Sub209]
[1]
  apparent KD of MS2 coat protein: 0.0626 µM
[2]
  apparent KD of MS2 coat protein: 0.0867 µM

## AGGCUCCUAGGAUAUACUGGCUGGCCUCCACAAAAGAAAAUACAUGAGGAUCACCCAUGUAGAAGGAGGAGUGG [Geesar]
[1]
  apparent KD of MS2 coat protein: 0.0193 µM
[2]
  apparent KD of MS2 coat protein: 0.0227 µM

## AGGGAGUGAGGAUAUACGAAAAAAAAACAACGAAAAAAAGAGUAGAAGGCACAUGAGGAUCACCCAUGUAAGAA [milkweed 14]
[1]
  apparent KD of MS2 coat protein: 0.0445 µM
[2]
  apparent KD of MS2 coat protein: 0.0253 µM

## AGGGAGUGAGGAUAUCCGAAAAAAAAACAACGAAAAAAAGAGGAGAAGGCACAUGAGGAUCACCCAUGUAAGAA [milkweed 15]
[1]
  apparent KD of MS2 coat protein: 0.0407 µM
[2]
  apparent KD of MS2 coat protein: 0.0286 µM

## AGGUACCUAGGAUAUACAUGAGGAUCACCCAUGUCACAAAUAAAACACAGGUAUCCUGGUAGAAGGAGGAACAA [Veinle]
[1]
  apparent KD of MS2 coat protein: 0.0241 µM
[2]
  apparent KD of MS2 coat protein: 0.0365 µM
